Experimental data: the supplement of paper PMC9876800

System: peptide library, one residue held at a place counted from the S/T acceptor
Assay: relative phosphorylation of the sub-library (ratio to the mean residue at this position); human; higher = residue favoured
Summary of the method: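 Each biotinylated degenerate peptide sub-library fixed one residue at one position around a central Ser/Thr and was incubated with a purified recombinant kinase, a human or orthologue construct, in 384-well plates. The 90 min reactions, under kinase-specific conditions, contained 50 μM peptide and 50 μM ATP spiked with γ-32P-ATP. Phosphorylation was read by phosphorimaging spots on streptavidin membranes and quantifying them by densitometry. Relative sub-library phosphorylation expresses each value as a ratio to the mean residue at that position.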

Chain of PAK3, construct: Full length (O75914 whole entry, looked up): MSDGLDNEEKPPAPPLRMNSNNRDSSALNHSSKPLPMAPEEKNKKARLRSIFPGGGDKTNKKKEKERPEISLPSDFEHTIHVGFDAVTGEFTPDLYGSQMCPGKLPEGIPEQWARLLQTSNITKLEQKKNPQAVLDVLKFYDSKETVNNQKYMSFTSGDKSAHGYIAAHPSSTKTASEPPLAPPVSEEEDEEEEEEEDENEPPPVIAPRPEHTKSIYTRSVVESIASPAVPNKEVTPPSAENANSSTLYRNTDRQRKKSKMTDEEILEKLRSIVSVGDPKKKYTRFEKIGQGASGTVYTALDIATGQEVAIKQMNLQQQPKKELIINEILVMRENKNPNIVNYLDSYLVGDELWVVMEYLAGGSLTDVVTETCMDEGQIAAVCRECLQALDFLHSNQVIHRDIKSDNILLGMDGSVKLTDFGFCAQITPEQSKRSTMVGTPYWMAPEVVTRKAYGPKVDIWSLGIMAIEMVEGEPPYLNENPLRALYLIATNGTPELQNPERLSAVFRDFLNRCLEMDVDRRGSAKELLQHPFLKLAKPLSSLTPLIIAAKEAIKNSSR

PAK3, construct: Full length (from UniProt O75914)
relative phosphorylation
Conditions | at +1 | at +2 | at +3 | at +4 | at -1 | at -2 | at -3 | at -4 | at -5
A fixed | 0.949 | 1.12 | 1.05 | 1.07 | 0.974 | 0.862 | 0.985 | 1.32 | 1.33
D fixed | 0.291 | 0.36 | 0.768 | 0.986 | 0.485 | 0.178 | 0.437 | 0.64 | 0.604
E fixed | 0.356 | 0.297 | 0.701 | 0.89 | 0.463 | 0.19 | 0.415 | 0.665 | 0.547
F fixed | 1.14 | 1.37 | 1.37 | 0.847 | 0.752 | 0.471 | 0.59 | 0.732 | 0.876
G fixed | 0.706 | 0.615 | 0.97 | 1.13 | 0.716 | 0.449 | 0.825 | 1.32 | 1.24
H fixed | 1.09 | 1.57 | 1.2 | 1.14 | 1.31 | 1.61 | 1.32 | 1.29 | 1.1
I fixed | 1.27 | 1.19 | 0.983 | 0.777 | 0.701 | 0.624 | 0.494 | 0.629 | 0.643
K fixed | 1.07 | 0.645 | 0.764 | 1.03 | 1.61 | 1.3 | 2.22 | 1.28 | 1.81
L fixed | 1.1 | 1.17 | 1.12 | 0.905 | 1.11 | 0.439 | 0.558 | 0.689 | 0.636
M fixed | 1.54 | 1.04 | 1.02 | 0.933 | 1.12 | 0.48 | 0.693 | 0.873 | 0.681
N fixed | 0.749 | 0.728 | 0.847 | 1.03 | 1.04 | 0.584 | 0.825 | 0.966 | 0.863
P fixed | 0.21 | 0.655 | 0.976 | 1.45 | 0.611 | 0.817 | 0.823 | 1.14 | 1.09
Q fixed | 1.09 | 0.729 | 0.886 | 1.17 | 1 | 0.715 | 0.878 | 1.05 | 0.93
R fixed | 1.35 | 0.853 | 0.819 | 0.933 | 2.06 | 6.37 | 3.73 | 1.86 | 2.24
V fixed | 1.12 | 1.11 | 0.955 | 0.908 | 0.914 | 0.748 | 0.512 | 0.756 | 0.757
W fixed | 1.66 | 1.11 | 1.26 | 1.04 | 0.976 | 0.423 | 0.907 | 0.901 | 0.812
Y fixed | 1.3 | 2.44 | 1.3 | 0.753 | 1.16 | 0.747 | 0.785 | 0.89 | 0.852
pThr fixed | 0.479 | 0.471 | 0.632 | 0.99 | 0.367 | 0.411 | 0.546 | 0.754 | 0.574
pTyr fixed | 0.635 | 2.43 | 0.9 | 0.76 | 0.605 | 0.323 | 0.743 | 0.654 | 0.619
